We go through 41 sequences from the nanobody polyreactivity screen of Harvey et al. (2022).

The data set can be described thus: yeast display, Sf9 membrane polyspecificity reagent, FACS + sequencing; frameworks hold sequencing errors. In short, it runs like this: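 Nanobodies from a synthetic yeast display library (Saccharomyces cerevisiae BJ5465), induced 36–48 hours with galactose, were stained 1 hour at 4 °C with 10% biotinylated, detergent-solubilized Sf9 membrane reagent, enriched on streptavidin microbeads, then FACS-sorted. Anti-HA (expression) and streptavidin (reagent binding) fluorescence set low and high (top ~1%) gates. Polyreactivity labels come from the gate of origin. Genes were colony-PCR amplified, MiSeq 2 × 250 sequenced and filtered by CDR length.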
Consider “QVQLVESGGGLVQAGGSLRLSCAASGYILQINAMGWYRQAPGKERELVAAISISGGNTYYADSVKGRFTISRDNAKNTVYLQMNSLKPEDTAVYYCNAGGPLQPYDYWGQGTQVTVSS”, for which the “polyreactivity (PSR sort gate)” value is reported as “low polyreactivity”. Consider “QVQLVESGGGLVQAGGSLRLSCAASGYILTHYAMGWYRQAPGKERELVAAITSSGGSTYYADSVKGRFTISRDNAKNTVYLQMNSLKPEDTAVYYCAADAGQQEYDYWGQGTQVTVSS”, for which the “polyreactivity (PSR sort gate)” value is “low polyreactivity”. Under “QVQLVESGGGLVQAGGSLRLSCAASGYILWNAMGWYRPAPGKERELVAAIRFRGGSTSYADSVKGRFTISRDNAKNTVYLQMNSLKPEDTAVYYCNARWWVIRPYQRHDYWGQGTQVTVSS” stands “low polyreactivity”; under “QVQLVESGGGLVQAGGSLRLSCAASGYISYVNAMGWYRQAPGKERELVAAISGRGGSTYYADSVKGRFTISRDNAKNNVYLQMNSLKPEDTAVYYCAADLYYSYYWGQGTQVTVSS”, “low polyreactivity”; under “QVQLVESGGGLVQAGGSLRLSCAASGYIVGAYAKGWYRQAPGKERELVAGITASGDSTYYADSVKGRFTISRDNAKNTVYLQMKCLKPEDTAVYYCNAQPDIGLYDRQWKEPYEYWGQGTQVTVSS”, “low polyreactivity”. The result for “QVQLVESGGGLVQAGGSLRLSCAASGYIVYFNAMGWYRQAPGKERELVASIDSGGSTNYADSVKGRFTISRDNAKNTVYLQMNSLKPADTAVYYCAADKLYQPGIGDDYWGQGTQVTVSS” reads “low polyreactivity”; that for “QVQLVESGGGLVQAGGSLRLSCAASGYIWYNAMRWYRQAPGKERELVAAISWGGGTTYYADSVKGRFTISRDNAKNTVYLQMNSLKPEDTAVYYCAAVDAVGPTSHAMYYWGQGTQVTVSS”, “low polyreactivity”; that for “QVQLVESGGGLVQAGGSLRLSCAASGYIWYYAMGWSRQAPGKERELVAAISWGGGSTYYADSVKGRFTISRDNAKNTVYLQMNSLKPEDTAVYYCATRCIPDDNARDYWGQGTQVTVSS”, “low polyreactivity”. Under “QVQLVESGGGLVQAGGSLRLSCAASGYIYSVNAMGWYRQAPGKERELVAAIRGSGGSTFYADSVKGRFTISRDNAKNTVYLQMNSLKPEDTAVSYCAASFLGSFTDWVYSVYEYGSWGQGTQVTVSS” stands “low polyreactivity”. Consider “QVQLVESGGGLVQAGGSLRLSCAASGYLWYYAMGWYRQSPGKERELVAAICWGGGSTFFADSVKGRFTISRDNAKNTVYLQMNSLKPEDTAVYYCAAVDAVGPTSHAMFYWGQGTQVTGSS”, for which the “polyreactivity (PSR sort gate)” value was “low polyreactivity”. Under “QVQLVESGGGLVQAGGSLRLSCAASGYNFERNAMGWYRPAPGKERELVAAITDDGDDTYYADSVKGRFTISRDNAKNTVYLQMNSLKPEDTAVYYCAKDLYYGDYYYWGQGTQVTVSS” stands “low polyreactivity”.

On to “QVQLVESGGGLVQAGGSLRLSCAASGYNFPYYAMGWYRQAPGKERELVAGITTDGSSTYYADSVKGRFTISRDNAKNTVYLQMNSLKPEDTAVYYCYGYPGYTWGWYDYWGQGTQVTVSS”, for which the “polyreactivity (PSR sort gate)” value is “low polyreactivity”. The result for “QVQLVESGGGLVQAGGSLRLSCAASGYNFRQYAMGWYRQATGKEREFVAAISQTGGSTYYADSVKGRFTISRDNANNTVYLQMNSLKPEDTAVYYCAARYRGQRYRKLDYWGQGTQVTVSS” reads “high polyreactivity”; that for “QVQLVESGGGLVQAGGSLRLSCAASGYNFYINPMGWYRQAPGKERELVATIRRRGGSTYYADSVKGRFTISRDNAKNTVYLQMNSLKPEDTAVYYCNAVTLGGKYVYQYRRGFDYWGQGTQVTVSS”, “high polyreactivity”. For the sequence “QVQLVESGGGLVQAGGSLRLSCAASGYNLSVNAMGWYRQAPGKERELVATIDIAGGSTYYADSVNGRFTISRDNAKNTVYLQMNSMKPVDTAVYYCNTEWNSLSKSSLGGRYDHWGQCTQVTVSS”, the “polyreactivity (PSR sort gate)” value is “low polyreactivity”.

Regarding “QVQLVESGGGLVQAGGSLRLSCAASGYTAYTYTMGWYRQAPGKVREWVAAMSRRSDSTYADSVKGRFTISRDNAKNTVYLQMNSLKPEDTADYYCAAVRVSYRSLSKSYYWGQGTQVTVSS”, the “polyreactivity (PSR sort gate)” value was “high polyreactivity”. The result for “QVQLVESGGGLVQAGGSLRLSCAASGYTFALYAMGWYRQAPGKERELVAAITWNGGSTYYADSVKGRFTISRDNAKNTVYLQMNSLKPEDTSVYYCNVESSQSSSGFDYWGQGTQVTVSL” reads “low polyreactivity”. With “QVQLVESGGGLVQAGGSLRLSCAASGYTFARNAMGWYRQAPGKERELVADINWSGTNTYYADSVKGRFTISRDNAKNTVYLQMNSLKPEDTAVDYCAKDLYFSGYEFDYWGQGTQVTVSS”, the “polyreactivity (PSR sort gate)” value was “low polyreactivity”.

Consider “QVQLVESGGGLVQAGGSLRLSCAASGYTFASNAMGWYRPAPGKERELVAAITRGGSTNYADSVKGRFTISRDNAKNTVYLQMNSLKPEDTAVYYFAAPRYRHTRKGGYWGQGTQVTVSS”, for which the “polyreactivity (PSR sort gate)” value was “low polyreactivity”. Under “QVQLVESGGGLVQAGGSLRLSCAASGYTFAVYAMGWYRQAPGKERELVAAISSDGSTNYADSVKGRFTISRDNAKNTVYFQMNSLKPEDTSVYYCAKVYKDLAGPFYDYWGQGTQVTVSS” stands “low polyreactivity”; under “QVQLVESGGGLVQAGGSLRLSCAASGYTFAWYAMGWYRQAPGKERELVAAINNGGSTSYADSVKGRFTISRDNAKNTVYLQMNSLKPEDTAVYYCNADHYGGPHWMDYWGQGTQVTVSS”, “low polyreactivity”; under “QVQLVESGGGLVQAGGSLRLSCAASGYTFAWYAMGWYRQAPGKERELVAAITVSGGSTYYADSVKGRFTISRDNAKNTVYLQMNSLKPEDTAVYYCAAVGKSPSRFGYWGQGTQVTVSS”, “low polyreactivity”. As for “QVQLVESGGGLVQAGGSLRLSCAASGYTFDGYAMGWYRQAPGKERELVAAINSGGGTYYADSVKGRFTISRDNAKNTVYLQMNSLKPEDTAVYYCAKYTYDYWGQGTQVTVSS”, the “polyreactivity (PSR sort gate)” value is “low polyreactivity”.

With “QVQLVESGGGLVQAGGSLRLSCAASGYTFDWYTMGWYRQAPGKERELVAAISASGVRTYYADSVKGRFTISRDNAKNTVYLQMNSLKPEDTAVYYCNRVYSTSRITQYEFDYWGQGTQVTVSS”, the “polyreactivity (PSR sort gate)” value is given as “low polyreactivity”. Under “QVQLVESGGGLVQAGGSLRLSCAASGYTFEPYAMGWYRQAPGKESELVAAISRGGTTNYADSVKGRFTISRDNAKNTVYLQINSLKPEDTAVYYCASSYFRRVFYSIYEYDYWGQGTQVTVSS” stands “low polyreactivity”; under “QVQLVESGGGLVQAGGSLRLSCAASGYTFEYYAMGWYRQAPGKERELVAAISWSGGDTYYADSVKGRFTISRDNAKNTVYLQMNSLNPEDTAVYYCAAVRYYRRRTGSYYHYDYWGQGTQVTVSS”, “low polyreactivity”. Regarding “QVQLVESGGGLVQAGGSLRLSCAASGYTFFKNAMGWYRQAPGKERELVAAISYSGGRTYYADSVKGRFTISRDNAKNTVYLQMNSLKPEDTAVYYCAKATRVITDDGSYGYWGQGTQVTVSS”, the “polyreactivity (PSR sort gate)” value was “high polyreactivity”. Under “QVQLVESGGGLVQAGGSLRLSCAASGYTFFYAMGWYRQAPGKERQLVAGISRAGRTKYADSVKGRFTISRDNAKNTVYLQMNSLKPEDTAVYYCAAYARVSSSRFDYWGQGTQVTVSS” stands “high polyreactivity”; under “QVQLVESGGGLVQAGGSLRLSCAASGYTFFYYAMGWYRQAPGKERELVATISGNGGRTYYADSVKGRFTISRDNAKKTVYLQMNSLKPEDTAVYYCAALLYIRSVGYDYWGQGTQVTVSS”, “low polyreactivity”; under “QVQLVESGGGLVQAGGSLRLSCAASGYTFGEYAMGWYRQAPGKERELVATISLSDGSTNYADSVKGRFTISRDNAKNTVYLQMNSLKPEDTAVYYCATTVWYKKAPYPDGDYWGQGTQVTVSS”, “low polyreactivity”. “QVQLVESGGGLVQAGGSLRLSCAASGYTFGHYAMGWYRQAPGKERELVAVNTSGGSTNYADSVKGRFTISRDNAKNTVYLQMNSLKPEDTAVYDCAADLYFYYVWIRDYWGQGTQVTVSS”: the “polyreactivity (PSR sort gate)” value is “low polyreactivity”. Take “QVQLVESGGGLVQAGGSLRLSCAASGYTFGIYTLGWYRQAPGKERELVADISSTGTTKYADSVKGRFTISRDNAKYTVYLQMNSLKPEDTAVYYCAVRPFWYRMDYWGQGTQVTVSS”: the “polyreactivity (PSR sort gate)” value is recorded as “low polyreactivity”. Under “QVQLVESGGGLVQAGGSLRLSCAASGYTFGSYAMGWYRQAPGKERELVAAIRGSGGSTYYADSVKGRFTISRDNAKNTVYLQMNSLKPEDTAVYYCATSVRRGGRQLYNYWGQGTQVTVSS” stands “high polyreactivity”. As to “QVQLVESGGGLVQAGGSLRLSCAASGYTFGSYAMGWYRQAPGKERELVAAISGGGSTNYADSVKGRFTISRDNAKNTVYLQMNSLKPEDTAVYYCAAYPYLYPLRFEEYDHWGQGTQVTVSS”, the “polyreactivity (PSR sort gate)” value is on record as “low polyreactivity”. The result for “QVQLVESGGGLVQAGGSLRLSCAASGYTFGTYAMGWYRQAPGKERELVAAITWRGGSTYYADSVKGRFTISRDNAKYTFYLQMNSLIPEDTAVYYCNADIKQRSDRYDYWGQGTQVTVSS” reads “high polyreactivity”; that for “QVQLVESGGGLVQAGGSLRLSCAASGYTFGTYDMGWYRQAPGKERELVAAISIGGSTNYADSVKGRFTISRDNAKNTVYLQMNSLKREDTAVYYCAAEVNVGTLLLSVIVEDGDYWGQGTQVTVSS”, “low polyreactivity”. The result for “QVQLVESGGGLVQAGGSLRLSCAASGYTFGTYDMGWYRQAPGKERELVAAISIGGSTNYADSVKGRFTISRDNEKNTVYLQMNSLKPVDTAVYYCAAEVNVGTLLLSVIVEDGDYWGQGTQVTVSS” reads “low polyreactivity”.

For the sequence “QVQLVESGGGLVQAGGSLRLSCAASGYTFGVYVMGWYRQAPGKERELVAAISGSTYYAYSVKGRFTISRDNAKNTVYLQMNSLKPEDTAVYYCAAESYFFSPRTREKFDYWGQGTQVTVSS”, the “polyreactivity (PSR sort gate)” value was “low polyreactivity”. Under “QVQLVESGGGLVQAGGSLRLSCAASGYTFGYYTMGWYRQAPGKERELVASIDSGGGTNYADSVKGRFTISRDNAKNTVYLQMNSLKPEDTEVYYCAAEYPLYWVDDFESGWRYYYWGQGTQVTVSS” stands “low polyreactivity”; under “QVQLVESGGGLVQAGGSLRLSCAASGYTFIYYAMGWYRQAPGKERELVATISIDGSTNYADSVKGRFTISRDNAKYSVYLQMNSLKREDTAVYYCNRERYEDYDYWGQGTQVTVSS”, “high polyreactivity”; under “QVQLVESGGGLVQAGGSLRLSCAASGYTFKTYAMGWYIQAPGKERELVAAISGSGGSTYYADSVKGRFTISRDNAKNTVYLQMNSLKPEDTEVYFCAATNWWGTEYDYWGQGTQVTVSS”, “high polyreactivity”.
